# In patent US20180104303A1 (UNIVERSITE DE LA ROCHELLE, published 2018):
# How the values were obtained:
# Experiment in all cases: cell-based or functional assay
# [1] = target: T1, recombinant alpha-glucosidase from Saccharomyces cerevisiae, which is a maltase (Saccharomyces cerevisiae)
# DPP-IV from pig kidney = DPP-IV from pig kidney (pig, UniProt P22411 38-766, limits assumed)
# [2] = target: T1, recombinant alpha-glucosidase from …; remark: listed apart in the source
# [3] = target: T1, recombinant alpha-glucosidase from …; remark: listed apart in the source
# DPP-IV from pig kidney, sequence (P22411 38-766 limits assumed): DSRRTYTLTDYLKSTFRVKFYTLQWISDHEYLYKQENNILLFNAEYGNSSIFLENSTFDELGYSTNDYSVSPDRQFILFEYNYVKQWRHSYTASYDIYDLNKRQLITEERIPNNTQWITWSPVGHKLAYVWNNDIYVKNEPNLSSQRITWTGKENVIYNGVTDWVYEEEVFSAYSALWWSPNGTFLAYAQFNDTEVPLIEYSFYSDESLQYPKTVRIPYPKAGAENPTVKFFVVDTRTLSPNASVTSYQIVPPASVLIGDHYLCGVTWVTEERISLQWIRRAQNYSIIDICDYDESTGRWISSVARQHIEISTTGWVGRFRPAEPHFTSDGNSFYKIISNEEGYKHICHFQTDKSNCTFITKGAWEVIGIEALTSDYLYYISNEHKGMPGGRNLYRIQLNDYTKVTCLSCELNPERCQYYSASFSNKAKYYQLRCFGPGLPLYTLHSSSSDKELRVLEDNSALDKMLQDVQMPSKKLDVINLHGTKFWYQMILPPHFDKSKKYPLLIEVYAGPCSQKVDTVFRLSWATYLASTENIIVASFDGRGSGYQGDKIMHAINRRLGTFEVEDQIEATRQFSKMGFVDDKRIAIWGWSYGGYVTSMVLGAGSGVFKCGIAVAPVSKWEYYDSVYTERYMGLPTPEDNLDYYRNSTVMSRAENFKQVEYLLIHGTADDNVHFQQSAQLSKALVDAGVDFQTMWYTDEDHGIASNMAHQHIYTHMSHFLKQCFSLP
Binder,Inhibitory activity on α-glucosidase (IC50) in mg/ml [1] [mg/mL],Inhibitory activity on α-glucosidase (IC50) in mmol/l [1] [mmol/L],"(IC50) in mmol/l, inhibition of DPP-IV (DPP-IV from pig kidney) [mmol/L]",IC50 ratio against the AP and VAP peptides [2] [fold],Inhibitory activity on α-glucosidase (IC50) [3] [mM],IC50 (inhibition of the activity of α-glucosidase in vitro) [2] [µM],IC50 ratio against acarbose [2] [fold]
LKP [LKP peptide],2.53,7.11,–,~355,7.11,–,–
SAPLRVY [SAPLRVY (SEQ ID NO: 3)],1.42,1.76,1.06,–,–,–,–
AP [AP peptide],0.0025,0.0136,4.78,–,0.0136,13.6,~874
KW [KW peptide],4.24,12.8,–,–,12.8,–,–
IPI [Diprotin A (IPI)],–,–,0.0121,–,–,–,–
IY [IY peptide],3.6,12.3,–,–,12.3,–,–
GPL [GPL peptide],1.37,4.82,1.85,~243,4.82,–,–
AVPYQR [AVPYQR (SEQ ID NO: 5)],2.34,3.19,5.7,–,–,–,–
KY [KY peptide],3.39,11,–,–,11,–,–

# More lines, now with the values ahead:
Inhibitory activity on α-glucosidase (IC50) in mg/ml [1] [mg/mL],Inhibitory activity on α-glucosidase (IC50) in mmol/l [1] [mmol/L],"(IC50) in mmol/l, inhibition of DPP-IV (DPP-IV from pig kidney) [mmol/L]",IC50 ratio against the AP and VAP peptides [2] [fold],Inhibitory activity on α-glucosidase (IC50) [3] [mM],IC50 (inhibition of the activity of α-glucosidase in vitro) [2] [µM],IC50 ratio against acarbose [2] [fold],Binder
2.03,2.68,1.18,–,–,–,–,VAPFPEV [VAPFPEV (SEQ ID NO: 4)]
0.0057,0.02,4.82,–,0.02,20,~595,VAP [VAP peptide]
0.756,2.7,–,~135,2.7,–,–,VY [VY peptide]
1.39,4.05,2.27,–,–,–,–,VAPG [VAPG (SEQ ID NO: 6)]
2.29,4.59,10.7,–,–,–,–,VGVAPG [VGVAPG (SEQ ID NO: 7)]
